Assay results from patent publication US20090181025A1 (published 2009).
One block for each binder: values may come before it.

How the values were obtained:
[1] = target: T1, mouse TARM protein, isoform m1, expressed on B300.19 cells (mouse, UniProt B6A8R8 17-288); test: co-immunoprecipitation from B300.19 transfectants (1% digitonin lysate): anti-Flag IP, immunoblot with anti-mTARM #6
T1 construct: In the co-immunoprecipitation the cells were solubilized in 1% digitonin; also called mTARM; mTARM-expressing cells
T1 sequence: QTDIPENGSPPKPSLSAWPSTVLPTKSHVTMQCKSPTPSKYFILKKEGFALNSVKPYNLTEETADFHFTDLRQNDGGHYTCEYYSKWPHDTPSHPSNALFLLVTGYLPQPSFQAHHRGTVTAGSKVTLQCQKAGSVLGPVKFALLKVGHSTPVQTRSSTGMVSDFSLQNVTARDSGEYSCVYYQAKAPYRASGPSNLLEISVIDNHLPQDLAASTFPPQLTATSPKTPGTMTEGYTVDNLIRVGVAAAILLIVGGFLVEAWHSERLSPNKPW
Method: B300.19 transfectants were solubilized in a cell lysis buffer containing 1% digitonin (1% digtonin/50 mM Tris-HCl (pH 7.5)/150 mM NaCl/5 mM NaF/1 mM orthovanadate/Complete™ (Roche)). Immunoprecipitation was carried out using an anti-Flag antibody, and immunoblot analysis was then carried out using anti-mTARM antibody #6.

[2] = target: AP protein used as a negative control (human, UniProt P05187 23-511); test: FACS of AP protein on mTARM-L-expressing B300.19 cells, detected with anti-PLAP antibody
AP protein used as a negative control, sequence (P05187 23-511): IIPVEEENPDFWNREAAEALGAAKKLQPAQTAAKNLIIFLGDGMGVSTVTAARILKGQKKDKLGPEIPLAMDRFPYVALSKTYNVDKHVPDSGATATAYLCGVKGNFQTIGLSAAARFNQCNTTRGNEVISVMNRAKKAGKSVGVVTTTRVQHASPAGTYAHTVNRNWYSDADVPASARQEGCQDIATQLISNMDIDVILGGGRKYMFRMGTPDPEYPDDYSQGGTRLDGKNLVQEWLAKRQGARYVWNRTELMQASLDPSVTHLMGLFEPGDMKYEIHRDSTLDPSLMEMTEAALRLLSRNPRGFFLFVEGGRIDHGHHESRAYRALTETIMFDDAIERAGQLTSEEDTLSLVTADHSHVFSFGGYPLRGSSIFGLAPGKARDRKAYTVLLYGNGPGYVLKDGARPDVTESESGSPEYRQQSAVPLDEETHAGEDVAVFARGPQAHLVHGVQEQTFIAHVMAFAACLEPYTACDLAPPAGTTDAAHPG

[3] = target: T2, CD54 endogenous in bone marrow-derived mature dendritic cells (mouse, UniProt P13597 28-537); test: co-immunoprecipitation from mature dendritic cells (1% digitonin lysate): anti-CD54 IP, immunoblot with anti-FcRγ chain antibody
T2 construct: Control membrane protein in the co-immunoprecipitation; also called another cell membrane protein CD54
T2 sequence (P13597 28-537 limits assumed): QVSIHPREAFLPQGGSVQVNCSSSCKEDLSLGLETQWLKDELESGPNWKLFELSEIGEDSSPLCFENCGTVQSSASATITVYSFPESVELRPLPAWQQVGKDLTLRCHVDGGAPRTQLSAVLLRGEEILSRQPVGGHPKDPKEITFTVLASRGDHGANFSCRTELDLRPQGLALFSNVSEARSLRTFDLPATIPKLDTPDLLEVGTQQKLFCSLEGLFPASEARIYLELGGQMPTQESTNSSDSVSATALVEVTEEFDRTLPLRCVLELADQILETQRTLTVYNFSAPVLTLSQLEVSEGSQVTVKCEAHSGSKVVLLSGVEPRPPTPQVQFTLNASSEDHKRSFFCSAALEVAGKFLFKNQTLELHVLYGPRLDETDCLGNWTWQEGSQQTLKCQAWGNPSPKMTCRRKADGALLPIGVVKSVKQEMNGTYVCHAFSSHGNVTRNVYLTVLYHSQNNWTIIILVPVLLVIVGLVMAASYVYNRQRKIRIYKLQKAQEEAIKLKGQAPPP
Method: Moreover, bone marrow-derived mature dendritic cells were solubilized in a cell lysis buffer containing 1% digitonin. Immunoprecipitation was carried out using rat IgG as a negative control, anti-mTARM antibody #21, an anti-CD54 antibody and an anti-FcRγ chain antibody, and immunoblot analysis was then carried out using an anti-FcRγ chain antibody.

B3: mouse TARM-L (TARM ligand) expressed on B300.19 cells (ligand)
chain: LEISADAHVRGYVGEKIKLKCTFKSSSDVTDKLTIDWTYRPPSSSRTESIFHYQSFQYPTTAGTFRDRISWAGNVYKGDASISISNPTLKDNGTFSCAVKNPPDVYHNIPLTELTVTERGFGTMLSSVALLSILVFVPSAVVVILLLVRMGRKATGVQKRSRSGYKKSSIEVSDDTDQEDSNDCMTRLCVRCAECLDSDYEEEAY
notes: also called mTARM-L; mTARM-L candidate
- binding result [2]: no binding (tested: 30 µg/ml (method of Example 5))

B4: FcRγ chain endogenous in bone marrow-derived mature dendritic cells (other, mouse, UniProt P20491 19-86, looked up)
chain: LGEPQLCYILDAVLFLYGIVLTLLYCRLKIQVRKAAIASREKADAVYTGLNTRSQETYETLKHEKPPQ
notes: Native protein from lysate of mouse dendritic cells
- binding result [3]: no binding

Results, then the binder that gave them:

- binding result [1]: no binding
B1: Flag tagged DAP12 expressed in B300.19 transfectants (other, UniProt O54885 22-114, looked up)
chain: LSPVQAQSDTFPRCDCSSVSPGVLAGIVLGDLVLTLLIALAVYSLGRLVSRGQGTAEGTRKQHIAETESPYQELQGQRPEVYSDLNTQRQYYR
notes: GenBank NM-011662 is printed; The fragment limits are set only by the primers; not shown: N-terminal Flag tag from vector pMXII IRES-Puro

- binding result [1]: no binding
B2: Flag tagged DAP10 expressed in B300.19 transfectants (other, UniProt Q9QUJ0 18-79, looked up)
chain: SQTSAGSCSGCGTLSLPLLAGLVAADAVMSLLIVGVVFVCMRPHGRPAQEDGRVYINMPGRG
notes: GenBank AF072846 is printed; The fragment limits are set only by the primers; not shown: N-terminal Flag tag from vector pMXII IRES-Puro
